B1: Myosin-binding protein C, cardiac-type (Mus musculus), O70468 (parent)
chain: MPEPGKKPVSAFNKKPRSAEVTAGSAAVFEAETERSGVMVRWQRDGSDITANDKYGLAAEGKRHTLTVRDASPDDQGSYAVIAGSSKVKFDLKVTEPAPPEKAESEVAPGAPEEVPAPATELEESVSSPEGSVSVTQDGSAAEHQGAPDDPIGLFLMRPQDGEVTVGGSIVFSARVAGASLLKPPVVKWFKGKWVDLSSKVGQHLQLHDSYDRASKVYLFELHITDAQTTSAGGYRCEVSTKDKFDSCNFNLTVHEAIGSGDLDLRSAFRRTSLAGAGRRTSDSHEDAGTPDFSSLLKKRDSFRRDSKLEAPAEEDVWEILRQAPPSEYERIAFQHGVEACHRPLKRLKGMKQDEKKSTAFQKKLEPAYQVNKGHKIRLTVELADPDAEVKWLKNGQEIQMSGSKYIFESVGAKRTLTISQCSLADDAAYQCVVGGEKCSTELFVKEPPVLITRSLEDQLVMVGQRVEFECEVSEEGAQVKWLKDGVELTREETFKYRFKKDGRKHHLIINEATLEDAGHYAVRTSGGQSLAELIVQEKKLEVYQSIADLAVGAKDQAVFKCEVSDENVRGVWLKNGKELVPDNRIKVSHIGRVHKLTIDDVTPADEADYSFVPEGFACNLSAKLHFMEVKIDFVPRQEPPKIHLDCPGSTPDTIVVVTGNKLRLDVPISGDPAPTVVWQKTVTQGKKASAGPHPDAPEDAGADEEWVFDKKLLCETEGRVRVETTKDRSVFTVEGAEKEDEGVYTVTVKNPVGEDQVNLTVKVIDVPDAPAAPKISNVGEDSCTVQWEPPAYDGGQPVLGYILERKKKKSYRWMRLNFDLLRELSHEARRMIEGVAYEMRVYAVNAVGMSRPSPASQPFMPIGPPGEPTHLAVEDVSDTTVSLKWRPPERVGAGGLDGYSVEYCQEGCSEWTPALQGLTERRSMLVKDLPTGARLLFRVRAHNVAGPGGPIVTKEPVTVQEILQRPRLQLPRHLRQTIQKKVGEPVNLLIPFQGKPRPQVTWTKEGQPLAGEEVSIRNSPTDTILFIRAARRTHSGTYQVTVRIENMEDKATLILQIVDKPSPPQDIRIVETWGFNVALEWKPPQDDGNTEIWGYTVQKADKKTMEWFTVLEHYRRTHCVVSELIIGNGYYFRVFSHNMVGSSDKAAATKEPVFIPRPGITYEPPKYKALDFSEAPSFTQPLANRSIIAGYNAILCCAVRGSPKPKISWFKNGLDLGEDARFRMFCKQGVLTLEIRKPCPYDGGVYVCRATNLQGEAQCECRLEVRVPQ

Variants of: B1
Details: with myh6_mouse Myh6, Q02566
myh6_mouse Myh6, Q02566, sequence (Q02566 whole entry): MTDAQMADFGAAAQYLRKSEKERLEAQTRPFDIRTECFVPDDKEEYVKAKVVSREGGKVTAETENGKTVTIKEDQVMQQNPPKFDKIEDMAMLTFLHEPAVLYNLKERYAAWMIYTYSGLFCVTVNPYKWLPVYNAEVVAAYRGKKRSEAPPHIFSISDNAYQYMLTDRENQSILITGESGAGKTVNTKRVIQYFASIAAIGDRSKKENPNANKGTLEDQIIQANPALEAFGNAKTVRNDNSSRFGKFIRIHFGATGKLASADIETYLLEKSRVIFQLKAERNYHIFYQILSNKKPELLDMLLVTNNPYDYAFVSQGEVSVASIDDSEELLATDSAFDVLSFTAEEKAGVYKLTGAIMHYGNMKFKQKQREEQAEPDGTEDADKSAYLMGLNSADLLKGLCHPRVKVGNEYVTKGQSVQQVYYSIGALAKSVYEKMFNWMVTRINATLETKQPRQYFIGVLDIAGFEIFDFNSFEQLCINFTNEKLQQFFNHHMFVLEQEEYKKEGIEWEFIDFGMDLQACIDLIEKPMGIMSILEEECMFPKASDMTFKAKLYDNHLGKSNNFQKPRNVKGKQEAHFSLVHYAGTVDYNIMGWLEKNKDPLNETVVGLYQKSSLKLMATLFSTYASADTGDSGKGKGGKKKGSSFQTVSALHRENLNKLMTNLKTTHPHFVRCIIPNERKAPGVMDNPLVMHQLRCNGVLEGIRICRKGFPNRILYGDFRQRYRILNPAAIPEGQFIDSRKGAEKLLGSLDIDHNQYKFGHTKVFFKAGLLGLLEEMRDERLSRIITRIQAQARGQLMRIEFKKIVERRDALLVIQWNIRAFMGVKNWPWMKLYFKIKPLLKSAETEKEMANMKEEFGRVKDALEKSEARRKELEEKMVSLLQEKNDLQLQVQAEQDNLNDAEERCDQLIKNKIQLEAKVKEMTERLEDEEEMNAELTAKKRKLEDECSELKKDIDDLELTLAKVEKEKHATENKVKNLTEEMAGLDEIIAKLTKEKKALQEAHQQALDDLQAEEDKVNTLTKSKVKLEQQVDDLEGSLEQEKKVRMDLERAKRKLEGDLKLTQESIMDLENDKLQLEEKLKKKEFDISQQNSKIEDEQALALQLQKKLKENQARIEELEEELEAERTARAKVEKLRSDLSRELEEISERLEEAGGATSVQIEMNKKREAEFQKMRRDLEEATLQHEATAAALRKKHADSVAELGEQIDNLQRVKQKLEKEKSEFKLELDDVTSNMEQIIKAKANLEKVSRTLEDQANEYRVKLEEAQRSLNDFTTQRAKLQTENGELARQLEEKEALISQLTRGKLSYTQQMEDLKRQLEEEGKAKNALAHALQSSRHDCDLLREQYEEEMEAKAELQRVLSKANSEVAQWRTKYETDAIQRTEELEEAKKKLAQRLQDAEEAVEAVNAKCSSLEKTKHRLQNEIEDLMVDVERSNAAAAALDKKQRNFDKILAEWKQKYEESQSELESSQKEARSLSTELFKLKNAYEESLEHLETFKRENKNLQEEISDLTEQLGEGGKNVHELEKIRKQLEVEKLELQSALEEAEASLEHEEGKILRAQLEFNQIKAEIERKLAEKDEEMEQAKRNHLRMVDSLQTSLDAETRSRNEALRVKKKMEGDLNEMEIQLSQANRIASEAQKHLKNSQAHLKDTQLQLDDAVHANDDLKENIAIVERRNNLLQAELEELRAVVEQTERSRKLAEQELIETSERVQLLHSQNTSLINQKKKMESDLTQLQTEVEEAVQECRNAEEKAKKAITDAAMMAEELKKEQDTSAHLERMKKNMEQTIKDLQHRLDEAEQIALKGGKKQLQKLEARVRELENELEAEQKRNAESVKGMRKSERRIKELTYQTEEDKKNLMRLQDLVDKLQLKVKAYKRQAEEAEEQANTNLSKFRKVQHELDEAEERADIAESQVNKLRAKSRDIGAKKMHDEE

effect of a mutation on the interaction | Variant
disrupting interaction strength | R266A;R270A;R271A
disrupting interaction strength | R279A;R280A;T281A
disrupting interaction strength | K298A;K299A
disrupting interaction strength | K298A;K299A;R300A

Variants of: B1
Details: with actc_mouse Actc1, P68033

effect of a mutation on the interaction | Variant
disrupting interaction strength | R304A;R305A
disrupting interaction strength | K188A;K191A;K193A

More lines, now with the values behind:

Variant | effect of a mutation on the interaction
R279A;R280A | disrupting interaction strength
R279A;R280A;T281A | disrupting interaction strength
